This series addresses RNA polymerase holoenzyme (sigma70);RapA (native) (Escherichia coli;Escherichia coli) (UniProt P0A7Z4+P0A8V2+P0A8T7+P0A800+P00579+P60240). The experiment in a line: EMSA. (In general: A gel shift assay detects complexes by their altered migration in electrophoresis.)

Some results are limits rather than exact numbers.

We go through one substance from article PMC2175355.

As to “55-nt RNA with two stem-loops and rA18 tail”, the binding signal (fold affinity vs holoenzyme without RapA) is over 20.
